± gives the uncertainty stated by the source.
Experiment: amyloid nucleation score (Sup35N fusion, yeast selection) (log enrichment); library NNK1; higher = more nucleation; inactive = no reads after selection
Method in brief: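 The nucleation score is the log enrichment of output over input reads, calculated with DiMSum and centred on the mode score of non-aggregating sequences. Sequences with under 100 input reads were excluded. Reads came from Illumina sequencing of plasmid inserts from psi-negative yeast expressing Sup35N fused to peptides of 20 random codons, induced 24 hours with 100 μM copper sulfate and grown 7 days at 30°C without adenine and uracil.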

| Substance | amyloid nucleation score |
| --- | --- |
| TVSSLSWDGMPLLPVTLIFS | -1.01 ± 1.2 |
| IHRFKFGG | 1.98 ± 0.2 |
| MRHRCGHRSVPG | -0.118 ± 0.68 |
| NIKEKG | 0.635 ± 0.44 |
| NLSTSMSRREIMQQHQHRRL | 0.594 ± 0.64 |
| LDAGH | -1.56 ± 1.8 |
| VCKVRRL | 0.461 ± 0.63 |
| TFIYSRECRRTSVWQPFNNR | -0.704 ± 0.65 |
| SSFSLGHVDGYKSTSVDAVL | 0.048 ± 1.4 |
| RLLGLHWIT | 1.5 ± 0.54 |
| RGAQARSQCCMVVMSVESRS | 0.628 ± 0.46 |
| KHSNLYIFPGVYFFQITSLY | 3.96 ± 0.088 |
| LYSSLSYTKFMCAG | -0.51 ± 0.81 |
| VINIFMVSLANTETDPTAHL | 8.324 ± 0.071 |
| FSMVAESRIEGILRFS | 0.409 ± 0.22 |
| GSARYCSYCWRTSDITWIIH | 1.71 ± 0.13 |
| AMLSIVSISAS | 1.39 ± 0.69 |
| LDTIVIVWRNCLRYKFHLCL | -0.057 ± 0.84 |
| DLLETKWIPSLVYKSFESLW | -0.137 ± 0.63 |
| HFCKYSQNIELRQALGCYFW | 6.16 ± 0.065 |
| LYSKLSALEFMQLAIQSHLD | 1.96 ± 0.15 |
| SRLVFGHTNRRNSIEQTELL | inactive |

| Substance | amyloid nucleation score |
| --- | --- |
| LVFVFWLKVEPPMLSTCMSK | -1.16 ± 2.7 |
| SSILDHLAAFVRRWFVYALL | -0.591 ± 0.98 |
| NWGWGGEFRRNMFRIVS | inactive |
| SACLQVWE | 0.284 ± 0.4 |
| GFIQWLMLWRVFFSM | -0.681 ± 0.39 |
| TVHFSDWMIPNTRLEATCGM | 0.158 ± 0.31 |
| FKRLNRFYRSLAIMTSTSHL | -0.149 ± 0.69 |
| EMRLCRPCREYLLKSPT | 0.31 ± 0.37 |
| ENLVFTY | 0.01 ± 0.28 |
| GSTFVGAIKQPIVCWIESGN | -1.32 ± 1.2 |
| RSNNSFCIPLSFMCYVYQAT | -0.172 ± 1.6 |
| RNNIFFF | 7.399 ± 0.059 |
| NNGKSIPFPGGARKVSLGSG | 0.087 ± 0.26 |
| TNSFSVGCVRIP | 0.657 ± 0.68 |
| ILPRNFVSTNVANRFIEGSS | 0.932 ± 0.66 |
| CFLVGSWTPI | 0.215 ± 0.76 |
| VSKDSSIQRGSRQFCYLAYS | 1.08 ± 0.61 |
| VNMRASSSMLTTVVAFIFPG | 6.521 ± 0.047 |
| PWQRSSCLGTLVLVTNYDRY | 0.058 ± 0.44 |
| RRYCKLLVWRQLTSYHGRQA | 0.527 ± 0.49 |
| GSFLRGPHPKNY | 0.853 ± 0.66 |
| SVMDCSFFVLPLCFGCDQKF | -0.987 ± 0.46 |

| Substance | amyloid nucleation score |
| --- | --- |
| WGFESFSAWATMCERSRWHR | 0.428 ± 0.55 |
| FQSSNSSYITIHYCLVGRFT | 6.013 ± 0.048 |
| FNSFCFQNVTLW | inactive |
| FMSEDESYVCYRWGWYDRIF | -0.919 ± 1 |
| LRYSYTRDHSGTPYPSTGNS | -0.74 ± 1.1 |
| CTAYYMLGGGRNLNHPLMWV | 0.497 ± 0.61 |
| SIRFMLYVRVKR | -0.234 ± 0.66 |
| DLCTNYQWFRAAYCYMSRVY | 1.2 ± 0.98 |
| FNYYSA | -0.012 ± 0.48 |
| CVDRRV | 0.203 ± 0.56 |
| NSWSFGPSGTQFGLSLFYGL | -0.979 ± 2.7 |
| YHNFNSV | 0.164 ± 0.34 |
| PQKLQGQIGCR | -0.549 ± 0.47 |
| AGGAP | 0.501 ± 0.89 |
| YSESVCSLLPQYSPVHPLFT | 0.891 ± 0.97 |
| INLGVMWGVPTELLVCNF | inactive |
| WRWYEGGLTLSWSHASSA | -0.536 ± 0.98 |
| CFFRTDGLDTPYGAYLVRSF | 2.31 ± 0.2 |
| LSATGGMGIRF | -0.318 ± 1.2 |
| YGRSP | 0.597 ± 0.46 |
| MAVLGALNRSGNMGVGLFYN | -0.647 ± 0.4 |
| VIAILLDGHLKVFTTLGYNR | -1.59 ± 1.5 |

| Substance | amyloid nucleation score |
| --- | --- |
| EDGSQ | 0.532 ± 0.42 |
| RRIGIGYGLLCRAWAYLYVL | -0.477 ± 1.2 |
| TSVTSVMWPYSPNGYLAVFR | -0.062 ± 1.2 |
| TEDAQRGD | -0.302 ± 0.5 |
| SCKYSAQNLWHLFYRNSLSS | -2.29 ± 2.1 |
| VEYVQYFWSSGGVYGSDTGW | 0.024 ± 0.76 |
| FRSVVWRLHTFY | -0.075 ± 0.5 |
| MSSRQVPGFLMIGSLFARCI | -0.639 ± 0.55 |
| VSYYITCRGKVETIALADRM | 0.088 ± 0.93 |
| VSFNCTNGFRIKHVLWSTDN | 1.09 ± 0.17 |
| TLSIFVLRIGARYNMLSLIQ | 0.095 ± 0.59 |
| RGGMIPGYTPAMYHWMLFKS | 0.185 ± 0.47 |
| VDVCCDGYRYLW | -0.754 ± 0.39 |
| YWDEIRCNSKNFDPCPFKAS | 0.54 ± 0.19 |
| VQETYGYLYRNNIDRGGHIN | 2.07 ± 0.56 |
| WFTDLRNRGVVNTYTPIV | -0.131 ± 0.29 |
| FEYVIPRVTKIVRSTDRRGS | -0.548 ± 1.7 |
| HAAYTEVFILLLNDNILPHL | -0.393 ± 0.45 |
| FNIYSQMYIW | 5.32 ± 0.066 |
| VHLCLCRCVLCAENGLWPFS | -0.761 ± 1.2 |

From the supplement of paper PMC12042874
